Experiment [1] has as its target T1, VEGFR2-Fc fusion.
T1 construct: Bought from R&D Systems
Put plainly: biolayer interferometry (Octet Red), biotinylated WW-B1 on streptavidin sensors, VEGFR2-Fc 1 to 100 nM, steady state analysis. The method, then: Real time binding assays between chemically synthesised clone WW-B1 and VEGFR2-Fc fusion were performed using biolayer interferometry with an Octet Red system (Fortebio, Menlo Park, Calif.). Biotinylated WW-B1 was immobilised to streptavidin biosensors (Fortebio) at a concentration of 50 ng/μl in PBS. Association curves were then detected by incubating WW-B1-coated sensors with different concentrations of VEGFR2 (1 to 100 nM in PBS), and dissociations were detected by incubating the sensors in PBS. The dissociation constant for WW-B1 binding to VEGFR2 was determined by steady state analysis to be 44 nM±1.1 nM (FIG. 5).
A general note: BLI is a label-free optical method that tracks binding on a fibre tip over time.

Experiment [2] has as its target T2, human serum albumin (human, UniProt P02768 25-609).
T2 construct: also called HSA
The experiment in a line: phage ELISA: phage-displayed clone on HSA-coated control wells (right bar of each pair), read at 450 nm. A general note: ELISA stands for enzyme-linked immunosorbent assay.

Experiment [3] deals with T1, VEGFR2-Fc fusion. Put plainly: biolayer interferometry (Octet Red), peptide on streptavidin sensors, steady state analysis; cyclised WW-B1, steady state analysis. As for the experimental part:
Real-time binding assays between the peptides and VEGFR2-Fc fusion were performed using biolayer interferometry with an Octet Red system (Fortebio, Menlo Park, Calif.). WW peptides were immobilised on streptavidin biosensors (Fortebio) at a concentration of 2 μg/ml in kinetic buffer. Association curves were then detected by incubating the immobilised peptide with […] (1 to 100 nM in kinetic buffer), and dissociations were detected by incubating the sensors in kinetic buffer. All of the peptides from the affinity maturation, bind to VEGFR2 with a similar affinity as WW-B1.
The dissociation constant for cyclised WW-B1 binding to VEGFR2 was determined by steady state analysis to be 31 nM±4.8 nM (FIG. 12).

In the next experiment the target is T3, Human β-NGF (human, UniProt P01138 123-240, limits assumed).
T3 construct: R&D Systems; It was biotinylated via carboxyl groups for the selection
T3 sequence (P01138 123-240 limits assumed): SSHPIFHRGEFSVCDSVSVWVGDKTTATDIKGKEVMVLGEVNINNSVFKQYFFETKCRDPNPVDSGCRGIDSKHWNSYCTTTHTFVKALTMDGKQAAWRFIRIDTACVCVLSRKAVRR
The experiment in a line: phage ELISA: phage-displayed clone on NGF-coated wells (left bar of each pair), read at 450 nm; control: HSA-coated wells (right bar).

Experiment [4] concerns the target T1, VEGFR2-Fc fusion. Put plainly: phage ELISA: phage-displayed clone on wells coated with 50 ng VEGFR2, anti-M13-HRP, absorbance at 450 nm; control: uncoated blocked wells (light bars). The method, then: (§1) ELISAs were then performed to screen for modified WW domain peptides that bind to the target ligand. NUNC Maxisorp plates were coated with 50 ng per well of VEGFR2 in PBS overnight at 4° C. After blocking the plates with PBS, 2% BSA, 0.1% Tween-20, phage displaying the selected clones were added, diluted in blocking buffer, and incubated for 1 hour. WW domain binders were detected using horseradish peroxidase-conjugated anti-M13 antibody (GE) and SureBlue TMB peroxidase substrate (Insight Biotechnology, Middlesex, UK); and the ELISA signal was read at 450 nm.

Experiment [5] has as its target T2, human serum albumin. Put plainly: phage ELISA for specificity: 50 ng of each protein coated per well, absorbance at 450 nm; six bars per clone in the order of the legend: VEGFR2, human IgG, monoclonal antibody, enzyme, HSA, blocked well. As for the experimental part:
as §1
The specificity of clones selected for binding to VEGFR2 was assayed in an ELISA against a selection of non-target peptides/proteins, as described above. 50 ng of each of the different target and non-target proteins was coated per well of and ELISA plate and each of the modified WW domain peptides was added.

Experiment [6] has as its target T1, VEGFR2-Fc fusion. Put plainly: competition ELISA: inhibition of VEGFR2 binding to coated VEGF by WW-B1-MBP. As for the experimental part: A competition assay was carried out in which binding of VEGFR2 to VEGF-A (VEGF) was competed by the presence of varying amounts of the selected modified WW domain peptide.
50 ng human VEGF (R&D Systems, Abingdon, UK) 1 μg/ml in PBS was coated per well onto a Maxisorp plate at 37° C. for 140 minutes. The wells were then blocked with 100 μl PBS containing 2% BSA for 55 minutes at room temperature. 1.25 ng VEGFR2 was preincubated with WW-B1 fused to maltose binding protein (MBP) in 50 μl PBS for 45 minutes at room temperature. The activity of the WW-B1 peptide was tested at serial dilutions from 10 μM to 156.25 nM. 50 μl 4% BSA in PBS was added to the preincubated VEGFR2 with WW-B1-MBP and the whole mixture was then added to the VEGF coated ELISA plate and incubated at room temperature for 55 minutes. The plate was then washed with 3 washes in PBS-Tween and 2 washes in PBS. Next 50 μl/well penta His-HRP (QIAgen, diluted 1:500 in 2% BSA in PBS) was added and the mixture incubated at room temperature for 55 minutes, before washing as before. ELISA signals were detected using SureBlue TMB peroxidase substrate (Insight biotechnology, Middlesex, UK) at 450 nm.
As a control, the above process was repeated with wild-type Pin1 WW domain peptide replacing WW-B1. The results are illustrated in FIG. 6.

Bridges are numbered along the chain shown (N, C = ends). Where no end group is shown, it is not given here. The star is where a group is joined. Biotin = O=C1N[C@H]2[C@H](CS[C@H]2CCCCC(=O)*)N1

Usually Kd stands for the free concentration of one partner at which half of the binding sites on the other are occupied at equilibrium, for simple one-to-one binding. Usually EC50 stands for the concentration needed to bring the measured effect to its halfway point. Low readings indicate greater potency, high ones weaker potency.

T2 sequence (P02768 25-609 limits assumed): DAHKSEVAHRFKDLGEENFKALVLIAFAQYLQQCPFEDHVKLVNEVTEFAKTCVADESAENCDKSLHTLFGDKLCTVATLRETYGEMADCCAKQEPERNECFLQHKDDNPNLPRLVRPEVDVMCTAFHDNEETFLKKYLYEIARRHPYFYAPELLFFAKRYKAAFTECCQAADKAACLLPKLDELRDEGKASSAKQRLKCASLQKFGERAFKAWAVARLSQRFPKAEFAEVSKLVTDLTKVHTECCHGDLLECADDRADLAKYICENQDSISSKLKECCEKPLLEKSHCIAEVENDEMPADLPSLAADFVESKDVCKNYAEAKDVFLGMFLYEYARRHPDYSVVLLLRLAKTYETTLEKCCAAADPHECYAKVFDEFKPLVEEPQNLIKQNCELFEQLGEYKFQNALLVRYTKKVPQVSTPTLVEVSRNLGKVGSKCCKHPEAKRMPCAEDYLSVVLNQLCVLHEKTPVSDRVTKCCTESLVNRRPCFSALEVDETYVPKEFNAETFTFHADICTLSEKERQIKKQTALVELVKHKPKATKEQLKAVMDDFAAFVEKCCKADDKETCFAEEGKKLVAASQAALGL

B1: WW-B1 VEGFR2 WW domain, chemically synthesised, biotinylated (linear) (designed binder)
peptide: Biotin-MADEEKLPPGWYKMWSSPGRVLYVNDITHAHRWERPSG
modifications: not fully specified
notes: Modified Pin1 WW domain; also called linear WW-B1; clone WW-B1
In the experiment with VEGFR2-Fc fusion [1], B1 had a dissociation constant (Kd) of 44 nM.

As for MADEEKLPPGWGKPWSARGRVTYINLITVAEQWERPS (designed binder) [NP-E3], in the experiment with human serum albumin [2], the binding result was “no binding”.

B2: cyclic WW-B1 peptide (Glu38 variant), cyclised through amino acids at positions 6 and 38 (designed binder)
peptide: Biotin-DEEKLPPGWYKMWSSPGRVLYVNDITHAHRWERPEG-NH2
modifications: lactam 4-35
SMILES: CC[C@H](C)[C@@H]1NC(=O)[C@H](CC(=O)O)NC(=O)[C@H](CC(N)=O)NC(=O)[C@H](C(C)C)NC(=O)[C@H](Cc2ccc(O)cc2)NC(=O)[C@H](CC(C)C)NC(=O)[C@H](C(C)C)NC(=O)[C@H](CCCNC(=N)N)NC(=O)CNC(=O)[C@@H]2CCCN2C(=O)[C@H](CO)NC(=O)[C@H](CO)NC(=O)[C@H](Cc2c[nH]c3ccccc23)NC(=O)[C@H](CCSC)NC(=O)[C@H](CCCCN)NC(=O)[C@H](Cc2ccc(O)cc2)NC(=O)[C@H](Cc2c[nH]c3ccccc23)NC(=O)CNC(=O)[C@@H]2CCCN2C(=O)[C@@H]2CCCN2C(=O)[C@H](CC(C)C)NC(=O)[C@@H](NC(=O)[C@H](CCC(=O)O)NC(=O)[C@H](CCC(=O)O)NC(=O)[C@H](CC(=O)O)NC(=O)CCCC[C@@H]2SC[C@@H]3NC(=O)N[C@@H]32)CCCCNC(=O)CC[C@@H](C(=O)NCC(N)=O)NC(=O)[C@@H]2CCCN2C(=O)[C@H](CCCNC(=N)N)NC(=O)[C@H](CCC(=O)O)NC(=O)[C@H](Cc2c[nH]c3ccccc23)NC(=O)[C@H](CCCNC(=N)N)NC(=O)[C@H](Cc2c[nH]cn2)NC(=O)[C@H](C)NC(=O)[C@H](Cc2c[nH]cn2)NC(=O)[C@H]([C@@H](C)O)NC1=O
notes: also called cyclised WW-B1
For the molecule B2, in the experiment with VEGFR2-Fc fusion [3], binding was characterised by a dissociation constant (Kd) of 31 nM.

With MADEEKLPPGWAVWSPDGRLYYWNSVIVSTRWGRPSC (designed binder, not shown: large carriers, also: fused to gpIII (M13 phage display), linker not given here) [clone NP-A12, phage-displayed modified Pin1 WW domain peptide], the figures for the binding result with human serum albumin [2] and with Human β-NGF were “no binding” and “binds”, respectively.

MADEEKLPPGWGKGWSPRGRVWYTNRTTVAAQWERPSG (designed binder, not shown: large carriers, also: fused to gpIII (M13 phage display), linker not given here) [clone H4, phage-displayed modified Pin1 WW domain peptide]: the results for the binding result in the experiment with VEGFR2-Fc fusion [4] and with human serum albumin [5] were “binds” and “no binding”, respectively.

As to MADEEKLPPGWCKFWSTAGRVIYINRITGAKQWERPSG (designed binder, not shown: large carriers, also: fused to gpIII (M13 phage display), linker not given here) [clone A1, phage-displayed modified Pin1 WW domain peptide], in the experiment with human serum albumin [5], the binding result is reported as “no binding”.

For MADEEKLPPGWYKMWSSPGRVLYVNDITHAHRWERPSG (designed binder, not shown: large carriers, also: fused to gpIII (M13 phage display), linker not given here, also called WW-B1) [clones B1 and H1, phage-displayed modified Pin1 WW domain peptide], in the experiment with human serum albumin [5], the binding result is “no binding”.

MADEEKLPPGWYKMWSSPGRVLYVNDITHAHRWERPSG (designed binder, not shown: large carriers, also: fused to maltose binding protein (MBP), order and linker not given here, also called WW-B1-MBP) [WW-B1 fused to maltose binding protein (MBP)] gave an EC50 with VEGFR2-Fc fusion [6] of 76 nM.

In the case of MADEEKLPPGWYKMWSSPGRVLYVNDITHAHQWERPSG (designed binder, not shown: large carriers, also: fused to gpIII (M13 phage display), linker not given here) [clones E1, E3, H3, C4, E4, G4 and H6, phage-displayed modified Pin1 WW domain peptide], the binding result with human serum albumin [5] is “no binding”.

In the case of MAVEEKLPPGWYKMWSSPGRVLYVNDITHAHQWERPSG (designed binder, not shown: large carriers, also: fused to gpIII (M13 phage display), linker not given here) [clone B4, phage-displayed modified Pin1 WW domain peptide], the binding result with VEGFR2-Fc fusion [4] is “binds”.

With MADEEKLPPGWTVWSPNGRVYYWNSITVARQWERPSG (designed binder, not shown: large carriers, also: fused to gpIII (M13 phage display), linker not given here) [clone NP-H8, phage-displayed modified Pin1 WW domain peptide], the results for the binding result in the experiment with human serum albumin [2] and with Human β-NGF were “no binding” and “binds”, respectively.

(Values after US20140005126A1 (ISOGENICA, published 2014).)
